This passage reports expression_or_secretion results from publication PMC11228984.

This series can be described thus: expression and purification from insect cells. Particulars: glycan lost; control: unmutated TREK2 construct.

B1: TREK2: N144Q (protein)
parent chain: MFFLYTDFFLSLVAVPAAAPVCQPKSATNGQPPAPAPTPTPRLSISSRATVVARMEGTSQGGLQTVMKWKTVVAIFVVVVVYLVTGGLVFRALEQPFESSQKNTIALEKAEFLRDHVCVSPQELETLIQHALDADNAGVSPIGNSSNNSSHWDLGSAFFFAGTVITTIGYGNIAPSTEGGKIFCILYAIFGIPLFGFLLAGIGDQLGTIFGKSIARVEKVFRKKQVSQTKIRVISTILFILAGCIVFVTIPAVIFKYIEGWTALESIYFVVVTLTTVGFGDFVAGGNAGINYREWYKPLVWFWILVGLAYFAAVLSMIGDWLRVLSKKTKEEVGEIKAHAAEWKANVTAEFRETRRRLSVEIHDKLQRAATIRSMERRRLGLDQRAHSLDMLSPEKRSVFAALDTGRFKASSQESINNRPNNLRLKGPEQLNKHGQGASEDNIINKFGSTSRLTKRKNKDLKKTLPEDVQKIYKTFRNYSLDEEKKEEETEKMCNSDNSSTAMLTDCIQQHAELENGMIPTDTKDREPENNSLLEDRN
Turning to B1, the expression_or_secretion result is “no change”.
